Data on 35 sequences can be found in the supplement of paper PMC10567573.

The data set can be described thus: protein stability index of a GFP-peptide fusion (GPS, HEK-293T) (PSI 1-6); higher = more stable.
Setting [1] is: treatment: DMSO, c terminus: a fixed tail appended.
[2] abbreviates: treatment: MLN4924 1 uM, 8 h, c terminus: a fixed tail appended.

± gives the standard deviation.
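Further: 24-mer peptide tiles fused after GFP, lentivirally expressed, FACS-sorted into six equal bins by GFP/DsRed ratio, decoded by Illumina sequencing, PSI is the read-weighted mean bin number.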

Consider WEAKQEKIKSEEIEITFSYWDGSG [FAM50A], for which the protein stability index runs as follows: under setting [1], 2.59 ± 0.3; under setting [2], 2.6 ± 0.35.

WGEMTLSLFSLLIAAAVYIMDTVG [SLC19A2] came in with a protein stability index under setting [1] of 2.51 ± 0.44 and a protein stability index under setting [2] of 2.46 ± 0.31.

Turning to WGHCEIRMRYLNGLDPEPLPLMDL [SPSB1], the protein stability index by setting is: under setting [1], 2.42 ± 0.59; under setting [2], 2.36 ± 0.59.

In the case of WVCFIYTIMSLASLLFVVMFIPET [SLC2A12], the protein stability index is, setting by setting: under setting [1], 3.06 ± 0.83; under setting [2], 2.74 ± 0.52.

Take WVLSIDGENAGSLTHIEAQNKIRA [PDLIM7]: the protein stability index is, setting by setting: under setting [1], 3.02 ± 0.33; under setting [2], 3.28 ± 0.29.

The sequence WVNDPQRMDKRTLALLVLAHSSDV [GOLPH3L] showed a protein stability index under setting [1] of 2.19 ± 0.3 and a protein stability index under setting [2] of 2.18 ± 0.2.

As to WVSTQLQATCNVHKSAFNDWFSGH [FADS1], the protein stability index was 2.75 ± 0.82 under setting [1] and 2.43 ± 0.54 under setting [2].

As to WWALSTCGYFQVVNYTQGLWEKVM [SLC19A2], the protein stability index amounted to 2.75 ± 1.3 under setting [1] and 2.45 ± 0.73 under setting [2].

Consider YDIAKHLTYENVERWLKELRDHAD [RAB11A], for which the protein stability index worked out at 2.66 ± 0.36 under setting [1] and 2.77 ± 0.23 under setting [2].

For YEHYERVENGDFNWIVPGKFLAFS [CDC14A], the protein stability index is, setting by setting: under setting [1], 2.34 ± 0.16; under setting [2], 2.26 ± 0.29.

Turning to YESTLFEDQVPALEAPEDIGSTSE [MIA2], the protein stability index reads like this: under setting [1], 5.55 ± 0.23; under setting [2], 5.51 ± 0.33.

For YGETDFHKQDGKAGLFSQEQYERN [TMEM40], the protein stability index stood at 4.18 ± 0.16 under setting [1] and 4.72 ± 0.56 under setting [2].

In the case of YGRDSFVRLLLEFKAEVDPLSDKG [ASB7], the protein stability index was 2.65 ± 0.74 under setting [1] and 2.37 ± 0.28 under setting [2].

In the case of YKGPLLEEQALTKAAEGGLSSPEF [FAM98B], the protein stability index reads like this: under setting [1], 4.41 ± 0.33; under setting [2], 4.55 ± 0.27.

Consider YKYGAIRDIDLKNRRGGPPFAFVE [SRSF1], for which the protein stability index is, setting by setting: under setting [1], 2.38 ± 0.31; under setting [2], 2.62 ± 0.36.

As to YLIMLPFRFTYYTILDIFRFALRF [FAF2], the protein stability index is 3.33 ± 0.26 under setting [1] and 3.25 ± 0.18 under setting [2].

Sequence YLNEYEAEKIEYNESMKAYHNSPA [SMARCE1] gave a protein stability index under setting [1] of 3.95 ± 0.4 and a protein stability index under setting [2] of 3.98 ± 0.31.

As for YLRFIVSRMKERAIDLNKKGKDNK [ZMYND11], the protein stability index reads like this: under setting [1], 2.63 ± 0.7; under setting [2], 2.05 ± 0.3.

On to YLYGILEERKNEMTQVITRTQEEK [TRIM55], for which the protein stability index is, setting by setting: under setting [1], 3.6 ± 0.15; under setting [2], 3.55 ± 0.31.

With YNHQHKYFFLIGPPALLPLYFQWY [FADS1], the protein stability index under setting [1] is 3.18 ± 0.66 and the protein stability index under setting [2] came out at 2.38 ± 0.32.

As for YNISEFTRRHPGGSRVISHYAGQD [FADS1], the protein stability index by setting is: under setting [1], 3.54 ± 0.15; under setting [2], 3.42 ± 0.26.

Regarding YQAFRECTLETTVHASGWNKILVP [BCL2L13], the protein stability index is, setting by setting: under setting [1], 1.93 ± 0.33; under setting [2], 2.32 ± 0.22.

Consider YQGPGTRRLQEVLGVQTGGPGGRR [DYRK1B], for which the protein stability index turned out to be 3.59 ± 0.39 under setting [1] and 3.94 ± 0.36 under setting [2].

For YRAALRSCSLVLEHQPDNIKALFR [FKBP8], the protein stability index reads like this: under setting [1], 2.17 ± 0.25; under setting [2], 2.27 ± 0.037.

In the case of YRDYGHSRRDESYSRGYRNRRSSR [RBMY1A1], the protein stability index is 4.75 ± 0.14 under setting [1] and 4.79 ± 0.12 under setting [2].

Take YRGAVYADSGNFKRCINLWKYALD [FEM1C]: the protein stability index was 2.32 ± 0.08 under setting [1] and 2.33 ± 0.18 under setting [2].

For YRQSSFPHCSDLMPSGSEEKILRE [KCNA4], the protein stability index is, setting by setting: under setting [1], 4.25 ± 0.29; under setting [2], 4.26 ± 0.14.

Turning to YRSLGSVQAPSYGARPVSSAASVY [KRT18], the protein stability index is, setting by setting: under setting [1], 3.33 ± 0.23; under setting [2], 3.17 ± 0.097.

In the case of YSAYIRRCACAASSDESPGSKCSP [TTC32], the protein stability index worked out at 2.25 ± 0.23 under setting [1] and 2.85 ± 0.16 under setting [2].

In the case of YSFRNPDVQSAIWRMLTGRRSLA [OR3A1], the protein stability index was 2.44 ± 0.51 (treatment: DMSO, c terminus: native) and 2.65 ± 0.36 (treatment: MLN4924 1 uM, 8 h, c terminus: native).

For YSGQITLLKLEQNTCSVITTLKGH [WDFY1], the protein stability index was determined as 2.82 ± 0.67 under setting [1] and 2.38 ± 0.36 under setting [2].

YSNLLVRDFRPTDQEEIKTLERYM [TENT5C] gave a protein stability index under setting [1] of 3.08 ± 0.22 and a protein stability index under setting [2] of 3.35 ± 0.36.

With YSRYLNEKAFSYRQMAFDFARVKK [SNAP91], the protein stability index is, setting by setting: under setting [1], 2.28 ± 0.59; under setting [2], 2.7 ± 0.16.

On to YTEGISQRMRVPEKLKVAPPNADL [MFF], for which the protein stability index worked out at 3.28 ± 0.4 under setting [1] and 3.75 ± 0.32 under setting [2].

Turning to YVHDPECVATTGDITVSVSTSFLP [FBXO3], the protein stability index reads like this: under setting [1], 2.46 ± 0.26; under setting [2], 2.95 ± 0.15.
